In PMC12668130, “RNA-induced PRC2 inhibition depends on the sequence of bound RNA”:

How the values were obtained:
[1] = target: PRC2 five-subunit (EZH2-EED-SUZ12-RBAP48-AEBP2) (UniProt Q15910-2;O75530;Q15022;Q09028;Q6ZN18-3 1-751;1-441;1-739;1-425;1-301); assay: EMSA; 100 mM KCl; affinity near identical to six-subunit; EMSA: 50 mM Tris-HCl pH 7.5 (25 C), 100 mM KCl, 2.5 mM MgCl2, 0.1 mM ZnCl2, 2 mM 2-mercaptoethanol, 0.05 mg/ml BSA, 0.05 mg/ml yeast tRNA, 5% glycerol, 30 C 30; conditions: protein: recombinant; tags: MBP tags, removed by Prescission protease; copies: 1;1;1;1;1; label: 5'-32P (EMSA, UV); 5'-biotin (EM); no G4
[2] = target: PRC2 four-subunit holoenzyme (EZH2-EED-SUZ12-RBAP48) (UniProt Q15910-2;O75530;Q15022;Q09028 1-751;1-441;1-739;1-425); assay: EMSA; 100 mM KCl; EMSA: 50 mM Tris-HCl pH 7.5 (25 C), 100 mM KCl, 2.5 mM MgCl2, 0.1 mM ZnCl2, 2 mM 2-mercaptoethanol, 0.05 mg/ml BSA, 0.05 mg/ml yeast tRNA, 5% glycerol, 30 C 30; conditions: protein: recombinant; tags: MBP tags, removed by Prescission protease; copies: 1;1;1;1; label: 5'-32P (EMSA, UV); 5'-biotin (EM); no G4
Chain of PRC2 four-subunit holoenzyme (EZH2-EED-SUZ12-RBAP48) (Q15910 other isoform, or with tags, fused parts or gaps, chain 1 of 4): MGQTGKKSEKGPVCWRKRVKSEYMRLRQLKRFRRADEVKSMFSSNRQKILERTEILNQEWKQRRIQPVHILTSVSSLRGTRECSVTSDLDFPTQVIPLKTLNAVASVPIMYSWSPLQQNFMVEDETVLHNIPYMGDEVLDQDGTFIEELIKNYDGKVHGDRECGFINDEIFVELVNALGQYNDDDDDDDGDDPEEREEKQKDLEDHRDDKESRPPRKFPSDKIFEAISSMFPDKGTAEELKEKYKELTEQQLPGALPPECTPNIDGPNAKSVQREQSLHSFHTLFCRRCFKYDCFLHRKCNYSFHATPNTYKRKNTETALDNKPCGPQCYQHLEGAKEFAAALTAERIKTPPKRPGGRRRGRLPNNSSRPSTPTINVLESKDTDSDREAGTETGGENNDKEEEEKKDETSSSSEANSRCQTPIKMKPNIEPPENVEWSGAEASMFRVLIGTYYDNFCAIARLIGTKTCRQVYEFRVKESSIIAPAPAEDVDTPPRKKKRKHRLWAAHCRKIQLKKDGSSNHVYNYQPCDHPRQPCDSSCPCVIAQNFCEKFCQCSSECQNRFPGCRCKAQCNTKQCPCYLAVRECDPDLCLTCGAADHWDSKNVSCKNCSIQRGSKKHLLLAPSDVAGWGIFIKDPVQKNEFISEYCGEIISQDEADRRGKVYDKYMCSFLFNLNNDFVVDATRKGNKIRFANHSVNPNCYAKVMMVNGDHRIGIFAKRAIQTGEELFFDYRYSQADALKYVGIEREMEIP
Chain of PRC2 four-subunit holoenzyme (EZH2-EED-SUZ12-RBAP48) (O75530 whole entry, chain 2 of 4): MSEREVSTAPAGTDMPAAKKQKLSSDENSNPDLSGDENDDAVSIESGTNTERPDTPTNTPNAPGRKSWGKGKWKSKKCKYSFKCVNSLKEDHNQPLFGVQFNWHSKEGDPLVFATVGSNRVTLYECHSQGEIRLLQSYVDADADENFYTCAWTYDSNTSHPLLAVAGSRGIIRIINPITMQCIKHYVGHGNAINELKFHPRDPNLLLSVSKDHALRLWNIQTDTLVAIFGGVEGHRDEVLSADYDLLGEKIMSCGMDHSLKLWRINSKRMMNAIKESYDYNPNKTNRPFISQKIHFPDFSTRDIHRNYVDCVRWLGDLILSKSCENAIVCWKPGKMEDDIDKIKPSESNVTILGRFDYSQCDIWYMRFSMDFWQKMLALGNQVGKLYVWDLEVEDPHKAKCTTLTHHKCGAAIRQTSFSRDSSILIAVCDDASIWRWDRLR
Chain of PRC2 four-subunit holoenzyme (EZH2-EED-SUZ12-RBAP48) (Q15022 whole entry, chain 3 of 4): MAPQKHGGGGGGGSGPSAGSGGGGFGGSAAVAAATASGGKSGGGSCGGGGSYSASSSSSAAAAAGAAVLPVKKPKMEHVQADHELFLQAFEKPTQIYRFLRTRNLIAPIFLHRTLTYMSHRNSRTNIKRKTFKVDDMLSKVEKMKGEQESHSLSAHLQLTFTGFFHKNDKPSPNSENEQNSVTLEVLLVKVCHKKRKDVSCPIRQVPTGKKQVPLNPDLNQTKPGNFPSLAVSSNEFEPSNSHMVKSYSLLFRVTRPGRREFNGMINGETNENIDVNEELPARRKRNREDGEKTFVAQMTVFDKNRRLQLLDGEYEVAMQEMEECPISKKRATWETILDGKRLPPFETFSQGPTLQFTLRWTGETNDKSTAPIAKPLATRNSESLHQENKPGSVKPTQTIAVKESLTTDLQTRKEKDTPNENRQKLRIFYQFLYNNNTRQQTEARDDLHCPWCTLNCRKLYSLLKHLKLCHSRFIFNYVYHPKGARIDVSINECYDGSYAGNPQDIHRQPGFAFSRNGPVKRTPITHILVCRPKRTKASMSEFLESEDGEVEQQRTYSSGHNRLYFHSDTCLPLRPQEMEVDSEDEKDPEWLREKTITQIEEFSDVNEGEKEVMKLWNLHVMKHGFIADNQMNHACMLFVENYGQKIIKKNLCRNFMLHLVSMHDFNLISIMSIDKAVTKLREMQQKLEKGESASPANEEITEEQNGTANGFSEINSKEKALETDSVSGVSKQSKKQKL
Chain of PRC2 four-subunit holoenzyme (EZH2-EED-SUZ12-RBAP48) (Q09028 whole entry, chain 4 of 4): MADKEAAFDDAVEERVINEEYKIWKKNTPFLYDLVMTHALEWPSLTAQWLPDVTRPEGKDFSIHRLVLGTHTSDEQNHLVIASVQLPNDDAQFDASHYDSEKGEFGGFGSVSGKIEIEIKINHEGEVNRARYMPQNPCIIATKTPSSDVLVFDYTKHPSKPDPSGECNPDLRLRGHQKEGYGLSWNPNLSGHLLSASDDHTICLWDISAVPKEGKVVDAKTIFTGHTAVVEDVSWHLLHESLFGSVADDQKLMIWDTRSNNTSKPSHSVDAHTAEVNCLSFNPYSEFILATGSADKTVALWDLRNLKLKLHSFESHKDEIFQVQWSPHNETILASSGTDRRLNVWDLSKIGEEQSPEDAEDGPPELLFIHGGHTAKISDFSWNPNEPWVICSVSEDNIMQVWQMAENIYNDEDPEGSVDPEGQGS

AAAAAAAAAAGAGAGAGAUGAGUGUGAGUGUGAGUGUGAGUGAGAGAGAG (ssRNA) [TERRAmut]
binding signal [1]: 4 Kd ratio TERRAmut/TERRA
binding signal [2]: 12 Kd ratio TERRAmut/TERRA
